Data from patent US20220364069A1, “METHOD FOR THE PRODUCTION OF AN ENZYMATIC COMPOSITION COMPRISING A RECOMBINANT ENDOPEPTIDASE” (NEMYSIS LIMITED, priority 2019, published 2022).

Assays:
[1] = Activity of culture supernatant toward sucAAPF-AMC at various pH; type: biochemical; details: recombinant E40 culture supernatant
Method: FIG. 1. Activity of Actinoallomurus A8 culture supernatant fraction containing the native E40. A: relative activity toward the substrate sucAlaAlaProPhe-AMC (sucAAPF-AMC) at various pH values (the optimum —100% activity— is at pH 5). B: Gliadin digestion after 2 hours of incubation at 37° C., pH 3. Gel stained with Coomassie R250 brilliant blue; Lane 1: gliadin alone, lane 2: gliadin+E40-containing supernatant fraction.
FIG. 3. Recombinant E40 (SEQ ID NO: 2) obtained by S. lividans TK24/p1J86/e40 submerged fermentation, at flask scale (panels A-C) or in a 15 L bioreactor, followed by purification (panels D-E). A: activity toward the substrate sucAAPF-AMC at pH 5 of supernatant samples taken at different fermentation times (♦72, ▴96, ●168, ▪192 fermentation hours) from the producing S. lividans TK24/p1J86/E40 (E40, continuous line) and absence of activity of supernatant samples taken from the pIJ86-empty control strain (ctr, dashed lines). Activity is shown as relative fluorescent units (rfu, Y axis) produced in time (X axis). […] D: profile of an enzyme preparation comprising recombinant E40 purified from the 15 L fermentation; lane 1: final enzyme preparation comprising recombinant E40 stained with Coomassie (the arrow indicates recombinant E40), lane 2: zymography as in C, lane 3: band of gelatin hydrolysis after 2 hours of digestion at 37° C. and pH 5, visualized after Coomassie staining of the gelatin substrate. E: relative activity (%) of recombinant E40 in the purified enzyme preparation at different pH values (from 2 to 8), evaluated with the substrate suc-Ala-Ala-Pro-Phe-pNA.
As well as native E40, recombinant E40 was active in the pH range 3-6, with an optimum at pH 5 (FIG. 3, panel B).

[2] = system: trypsin; assay: Resistance of E40 to trypsin (suc-Ala-Ala-Pro-Phe-pNA cleavage); type: biochemical; details: pH 6 and 7; protease 1:2 (w/w) versus E40; 110 minutes, 37° C.
Method: The resistance of recombinant E40, obtained by the method of the invention, to the proteolytic activity of gastric (pepsin) and duodenal (trypsin) digestive proteases was further evaluated (FIG. 4), using suc-Ala-Ala-Pro-Phe-pNA as substrate. Aqueous solutions of E40 enzyme, alone or in combination with pepsin and/or trypsin (0.2 mg/ml E40, 0.1 mg/ml Pepsin or Trypsin), were diluted in citrate-phosphate buffer containing suc-Ala-Ala-Pro-Phe-pNA at pH 4, 4.5 and 5 for pepsin, and at pH 6 and 7 for trypsin. Final concentrations in reaction mix were: 200 μM substrate, 1-4 nM E40 for incubations at pH 4 to 5, or 4 nM and 7 nM for incubations at pH 6 or 7, respectively (E40 concentration was adjusted according to optimum pH). The digestive protease was maintained in the ratio 1:2 (w/w) versus E40.
Reactions (200 μl volume in 96-wells flat bottom ptiter plates) were protracted for 110 minutes at 37° C. Absorbance was monitored every 10 min for determining the enzymatic activity. Pepsin and trypsin without E40 were processed in the same way and tested in the same condition as reference control. Each analysis was carried out in duplicate.

[3] = system: 33-mer gliadin peptide; assay: Digestion of 33-mer gliadin peptide monitored by LC-MS/MS; type: biochemical
33-mer gliadin peptide, sequence (as listed by the source): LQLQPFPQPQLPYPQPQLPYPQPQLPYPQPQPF
Method: The 33-mer gliadin peptide degradation was monitored by LC-MS/MS, before (FIG. 5, panel A) and after (FIG. 5, panels B-E) digestion by recombinant E40. Digestion was performed in U-bottom 96-wells microtiter plate; 33-mer was diluted in citrate phosphate buffer (pH 5) to 5 mg/ml, mixed with the enzyme preparation comprising recombinant E40 diluted in the same buffer (1:48 enzyme vs substrate molar ratio) and incubated at 37° C. At the time points 0, 15, 30 and 60 minutes, aliquots (10 μl) were taken, and reactions were stopped by boiling for 3 minutes before being analyzed by LC-MS/MS.
Samples were analyzed by HPLC system Accela Instrument (Thermo Fisher Scientific, San Jose, Calif.) coupled to both UV detector and LTQ-XL ion trap mass spectrometer (Thermo Fisher Scientific). […] E40 cleaving site occurs between F-P and Q-L residues of gliadin, leading to short peptides lacking of T-cell stimulatory capacity (FIG. 5, F)^3. This finding was also observed at more diluted E40 concentration (1:96, molar ratio): in that case complete 33-mer degradation took 30 minutes (not shown).

[4] = system: CD4+ T-cell lines from intestinal biopsies of CD patients; assay: IFN-γ production of gliadin reactive intestinal T-cell lines exposed to gliadin digests; type: cell-based, human; details: samples A-H; digests at 50 and 100 μg/ml; 48 hours; assay sensitivity 32 pg/ml
Method: In order to evaluate the capability of gliadin preparations to activate a T-cell response, the different gliadin enzymatic digests (samples A-L in FIGS. 7A and 7B) deamidated by tTG treatment, were assayed on CD4+ T-cell lines previously established from intestinal biopsies of CD patients^11 (Table 3).
Briefly, intestinal mononuclear cells were stimulated with irradiated autologous peripheral blood mononuclear cells (PBMCs) and deamidated pepsin-chymotrypsin digested gliadin extracted from the hexaploid wheat. Growing T cells were kept in culture by repeated stimulation with heterologous irradiated PBMCs and PHA, and IL-2 as a growth factor. […] In the functional assays, the immune response of TCLs to gliadin enzymatic digests (samples A-L, Table 1 and FIGS. 7A and B) was assayed by detecting IFN-γ production. T cells (3×10^4) were co-incubated with irradiated autologous EBV-transformed, B-lymphoblastoid cell lines (B-LCLs, 1×10^5), in 200 μL of complete medium (X-Vivol5 supplemented with 5% human serum and penicillin-streptomycin antibiotics, all reagents supplied by Lonza-BioWhittaker, Verviers, Belgium) in U-bottom 96-well plates. After a 48 hours incubation, cell supernatants (50 μL) were collected for IFN-γ determination. […] IFN-γ was measured by a classic sandwich ELISA using purified and biotin-conjugated anti-IFN-γ Abs purchased from Mabtech (Nacka Strand, Sweden). […]

[5] = system: peanut proteins; assay: In vitro digestion of peanut proteins (SDS-PAGE, HPLC); type: biochemical; details: 1:20 enzyme:substrate, up to 120 min
Method: Degradation of peanuts proteins incubated in the presence of recombinant E40 has been assessed by SDS-PAGE and HPLC analysis. Results are shown in FIG. 9 (A: SDS-PAGE; B: HPLC analysis).

B1: E40: Actinoallomurus endopeptidase with glutenase activity, sequence comprising SEQ ID NO: 1; recombinant histidine-tagged form SEQ ID NO: 2 from S. lividans (protein)
chain: AAPSGLSPANLQSAYKLPSSTAGSGQTVAIVDAYDAPTAEADLNVYRSQFGLGACTTANGCFKKVDQNGGTSYPRKDGGWAQEISLDLDMVSAVCPNCKIVLVEAKTNSFANLGTAENTAASLANVISNSYGGSDASDASYGSYYNHPGKAITVSSGDAGYGVEYPASSHYVTAVGGTSLRTASTSRGWSETAWSGAGSGCSAYNTALSGQSGLTGCSRRAVADVSAVADPATGVAVYDSTAYQGQSGWMVFGGTSVAAPIIGGVYGLAANAASIDNNYPYAHTSSLFDVTSGSNGTCTTTKWCTAGTGWDGPTGLGTPNGTGAFGHHHHHH
modifications: Actinoallomurus
- pH range of activity [1]: 3-6
- pH optimum of relative activity ([1]; 168 hours of fermentation, sucAAPF-AMC): 5
- E40 cleaving activity in presence of trypsin [2]: unaffected
- time to complete disappearance of native 33-mer peptide signal ([3]; 1:48 enzyme vs substrate molar ratio, pH 5, 37° C.): 15 min
- time to complete 33-mer degradation ([3]; 1:96 molar ratio): 30 min
- IFN-γ production of T cells exposed to E40-digested gliadins [4]: no detectable IFN-γ production
- peanut protein digestion [5]: degradation of peanut proteins
- pH of maximal activity (purified enzyme preparation, pH range 2 to 8): 5
- residual activity at pH 3 (purified enzyme preparation, relative to pH 5): ~40%
- enzyme activity of purified sample (purified sample of Example 4, pH 5, 37° C.): 41000 U/mg protein
